Experimental data reported in publication doi:10.1101/577460 (bioRxiv, 2019).
Positions count from the first letter of the chain named. Names may count otherwise.

Legend:
[1] = target: T1, full-length human CHMP7 (human, UniProt Q8WUX9 1-453); assay: cross-linking
T1 sequence (looked up): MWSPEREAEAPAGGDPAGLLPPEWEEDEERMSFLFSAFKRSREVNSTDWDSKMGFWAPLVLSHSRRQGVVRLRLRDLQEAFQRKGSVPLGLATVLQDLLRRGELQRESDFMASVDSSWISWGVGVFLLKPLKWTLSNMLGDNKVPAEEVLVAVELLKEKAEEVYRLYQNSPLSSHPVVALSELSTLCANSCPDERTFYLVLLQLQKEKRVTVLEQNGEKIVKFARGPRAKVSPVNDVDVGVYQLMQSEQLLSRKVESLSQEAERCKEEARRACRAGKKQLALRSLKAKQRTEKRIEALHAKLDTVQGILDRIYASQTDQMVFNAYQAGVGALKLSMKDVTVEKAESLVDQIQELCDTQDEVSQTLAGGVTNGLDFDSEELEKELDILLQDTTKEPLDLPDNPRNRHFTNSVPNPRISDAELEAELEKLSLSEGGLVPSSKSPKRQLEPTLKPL

[2] = target: the molecule itself; assay: negative stain EM
[3] = target: the molecule itself; assay: co-sedimentation
[4] = target: T2, barrier-to-autointegration factor (BAF) (human, UniProt O75531 1-89); assay: SEC
T2 sequence (looked up): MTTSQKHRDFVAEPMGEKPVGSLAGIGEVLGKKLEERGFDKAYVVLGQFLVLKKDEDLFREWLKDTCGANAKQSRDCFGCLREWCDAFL

B1: His6-SUMO-LEM2_(395-503) (domain or fragment, human, UniProt Q8NC56 395-503, looked up)
chain: ILLKYRWRKLEEEEQAMYEMVKKIIDVVQDHYVDWEQDMERYPYVGILHVRDSLIPPQSRRRMKRVWDRAVEFLASNESRIQTESHRVAGEDMLVWRWTKPSSFSDSER
[1]
  binding result: binds

B2: CHMP7_(229-453) (domain or fragment, human, UniProt Q8WUX9 229-453, looked up)
chain: AKVSPVNDVDVGVYQLMQSEQLLSRKVESLSQEAERCKEEARRACRAGKKQLALRSLKAKQRTEKRIEALHAKLDTVQGILDRIYASQTDQMVFNAYQAGVGALKLSMKDVTVEKAESLVDQIQELCDTQDEVSQTLAGGVTNGLDFDSEELEKELDILLQDTTKEPLDLPDNPRNRHFTNSVPNPRISDAELEAELEKLSLSEGGLVPSSKSPKRQLEPTLKPL
[2]
  binding result: binds

B3: CHMP7_(R270E + I312E) (natural protein, human, UniProt Q8WUX9 1-453, looked up)
chain: T1 sequence (looked up) with R270E, I312E
[3]
  binding result: binds

B4: CHMP7_(R270E + V339D) (natural protein, human, UniProt Q8WUX9 1-453, looked up)
chain: T1 sequence (looked up) with R270E, V339D
[3]
  binding result: binds

B5: LEM2_(1-72) (domain or fragment, human, UniProt Q8NC56 1-72, looked up)
chain: MAGLSDLELRRELQALGFQPGPITDTTRDVYRNKLRRLRGEARLRDEERLREEARPRGEERLREEARLREDA
[4]
  binding result: binds
